# Data as given in patent US9993529B2, “Stable formulations of a hyaluronan-degrading enzyme” (Halozyme, Inc., priority 2011, dated 2018).
# Assay: RP-HPLC insulin apparent solubility / percent recovery (content)
# Details: 7 days at 2-8° C.
# Description: Apparent solubility was measured as the percent insulin recovery as compared to the initial formulations/conditions.
# Samples were prepared by withdrawing 100 μL from each vial at every time point and centrifuging prior to loading. Samples were stored in an autosampler at 4° C. prior to use, and were considered stable for 3 days after preparation. All samples were tested in duplicate.
# For insulin, 20 μL was injected for each HPLC run.
# To determine the apparent solubility, the peak area of insulin/insulin analog main peak and desamido peak were integrated and combined together to calculate the percentage relative to the standards. […] The data were processed using Design-Expert® 7.0 (StatEase) and the “historical data” feature. Insulin percent purity was expressed as the percent of main insulin versus all insulin species.
substance,measurement,setting,value
Aspart: AspB28 human insulin analog,Solubility of Insulin Aspart,"0.2% methylparaben + […] m-cresol, pH 6.6, NaCl 50 mM",57.7%
same,Solubility of Insulin Aspart,"0.2% methylparaben + […] m-cresol, pH 6.6, NaCl 80 mM",32.1%
same,Solubility of Insulin Aspart,"0.2% methylparaben + […] m-cresol, pH 6.6, NaCl 110 mM",21.1%
same,Solubility of Insulin Aspart,"0.2% methylparaben + […] m-cresol, pH 6.6, NaCl 140 mM",14.7%
same,Solubility of Insulin Aspart,"0.2% methylparaben + […] m-cresol, pH 6.8, NaCl 50 mM",97.2%
same,Solubility of Insulin Aspart,"0.2% methylparaben + […] m-cresol, pH 6.8, NaCl 80 mM",84.1%
same,Solubility of Insulin Aspart,"0.2% methylparaben + […] m-cresol, pH 6.8, NaCl 110 mM",54.2%
same,Solubility of Insulin Aspart,"0.2% methylparaben + […] m-cresol, pH 6.8, NaCl 140 mM",32.2%
same,Solubility of Insulin Aspart,"0.2% methylparaben + […] m-cresol, pH 7.0, NaCl 50 mM",98.7%
same,Solubility of Insulin Aspart,"0.2% methylparaben + […] m-cresol, pH 7.0, NaCl 80 mM",100.2%
same,Solubility of Insulin Aspart,"0.2% methylparaben + […] m-cresol, pH 7.0, NaCl 110 mM",96.3%
same,Solubility of Insulin Aspart,"0.2% methylparaben + […] m-cresol, pH 7.0, NaCl 140 mM",67.9%
same,Solubility of Insulin Aspart,"0.2% methylparaben + […] m-cresol, pH 7.2, NaCl 50 mM",99.0%
same,Solubility of Insulin Aspart,"0.2% methylparaben + […] m-cresol, pH 7.2, NaCl 80 mM",100.2%
same,Solubility of Insulin Aspart,"0.2% methylparaben + […] m-cresol, pH 7.2, NaCl 110 mM",99.5%
same,Solubility of Insulin Aspart,"0.2% methylparaben + […] m-cresol, pH 7.2, NaCl 140 mM",101.6%
same,Solubility of Insulin Aspart,"0.2% methylparaben + […] m-cresol, pH 7.4, NaCl 50 mM",99.1%
same,Solubility of Insulin Aspart,"0.2% methylparaben + […] m-cresol, pH 7.4, NaCl 80 mM",100.5%
same,Solubility of Insulin Aspart,"0.2% methylparaben + […] m-cresol, pH 7.4, NaCl 110 mM",99.6%
same,Solubility of Insulin Aspart,"0.2% methylparaben + […] m-cresol, pH 7.4, NaCl 140 mM",99.6%
same,Solubility of Insulin Aspart,"0.2% methylparaben + […] m-cresol, pH 7.6, NaCl 50 mM",99.3%
same,Solubility of Insulin Aspart,"0.2% methylparaben + […] m-cresol, pH 7.6, NaCl 80 mM",100.6%
same,Solubility of Insulin Aspart,"0.2% methylparaben + […] m-cresol, pH 7.6, NaCl 110 mM",99.8%
same,Solubility of Insulin Aspart,"0.2% methylparaben + […] m-cresol, pH 7.6, NaCl 140 mM",99.8%
same,Solubility of Insulin Aspart,"0.2% phenol + […] m-cresol, pH 6.6, NaCl 50 mM",91.8%
same,Solubility of Insulin Aspart,"0.2% phenol + […] m-cresol, pH 6.6, NaCl 80 mM",59.2%
same,Solubility of Insulin Aspart,"0.2% phenol + […] m-cresol, pH 6.6, NaCl 110 mM",58.0%
same,Solubility of Insulin Aspart,"0.2% phenol + […] m-cresol, pH 6.6, NaCl 140 mM",39.3%
same,Solubility of Insulin Aspart,"0.2% phenol + […] m-cresol, pH 6.8, NaCl 50 mM",98.8%
same,Solubility of Insulin Aspart,"0.2% phenol + […] m-cresol, pH 6.8, NaCl 80 mM",91.8%
same,Solubility of Insulin Aspart,"0.2% phenol + […] m-cresol, pH 6.8, NaCl 110 mM",72.8%
same,Solubility of Insulin Aspart,"0.2% phenol + […] m-cresol, pH 6.8, NaCl 140 mM",50.9%
same,Solubility of Insulin Aspart,"0.2% phenol + […] m-cresol, pH 7.0, NaCl 50 mM",99.1%
same,Solubility of Insulin Aspart,"0.2% phenol + […] m-cresol, pH 7.0, NaCl 80 mM",100.6%
same,Solubility of Insulin Aspart,"0.2% phenol + […] m-cresol, pH 7.0, NaCl 110 mM",99.9%
same,Solubility of Insulin Aspart,"0.2% phenol + […] m-cresol, pH 7.0, NaCl 140 mM",88.9%
same,Solubility of Insulin Aspart,"0.2% phenol + […] m-cresol, pH 7.2, NaCl 50 mM",99.1%
same,Solubility of Insulin Aspart,"0.2% phenol + […] m-cresol, pH 7.2, NaCl 80 mM",100.5%
same,Solubility of Insulin Aspart,"0.2% phenol + […] m-cresol, pH 7.2, NaCl 110 mM",100.0%
same,Solubility of Insulin Aspart,"0.2% phenol + […] m-cresol, pH 7.2, NaCl 140 mM",99.7%
same,Solubility of Insulin Aspart,"0.2% phenol + […] m-cresol, pH 7.4, NaCl 50 mM",99.2%
same,Solubility of Insulin Aspart,"0.2% phenol + […] m-cresol, pH 7.4, NaCl 80 mM",100.6%
same,Solubility of Insulin Aspart,"0.2% phenol + […] m-cresol, pH 7.4, NaCl 110 mM",100.0%
same,Solubility of Insulin Aspart,"0.2% phenol + […] m-cresol, pH 7.4, NaCl 140 mM",99.7%
same,Solubility of Insulin Aspart,"0.2% phenol + […] m-cresol, pH 7.6, NaCl 50 mM",99.2%
same,Solubility of Insulin Aspart,"0.2% phenol + […] m-cresol, pH 7.6, NaCl 80 mM",100.8%
same,Solubility of Insulin Aspart,"0.2% phenol + […] m-cresol, pH 7.6, NaCl 110 mM",100.2%
same,Solubility of Insulin Aspart,"0.2% phenol + […] m-cresol, pH 7.6, NaCl 140 mM",99.8%
same,Solubility of Insulin Aspart,"[…] phenol + […] m-cresol, pH 6.6, NaCl 50 mM",97.9%
same,Solubility of Insulin Aspart,"[…] phenol + […] m-cresol, pH 6.6, NaCl 80 mM",86.3%
same,Solubility of Insulin Aspart,"[…] phenol + […] m-cresol, pH 6.6, NaCl 110 mM",54.4%
same,Solubility of Insulin Aspart,"[…] phenol + […] m-cresol, pH 6.6, NaCl 140 mM",38.3%
same,Solubility of Insulin Aspart,"[…] phenol + […] m-cresol, pH 6.8, NaCl 50 mM",99.8%
same,Solubility of Insulin Aspart,"[…] phenol + […] m-cresol, pH 6.8, NaCl 80 mM",97.9%
same,Solubility of Insulin Aspart,"[…] phenol + […] m-cresol, pH 6.8, NaCl 110 mM",97.5%
same,Solubility of Insulin Aspart,"[…] phenol + […] m-cresol, pH 6.8, NaCl 140 mM",60.5%
same,Solubility of Insulin Aspart,"[…] phenol + […] m-cresol, pH 7.0, NaCl 50 mM",99.7%
same,Solubility of Insulin Aspart,"[…] phenol + […] m-cresol, pH 7.0, NaCl 80 mM",99.3%
same,Solubility of Insulin Aspart,"[…] phenol + […] m-cresol, pH 7.0, NaCl 110 mM",99.3%
same,Solubility of Insulin Aspart,"[…] phenol + […] m-cresol, pH 7.0, NaCl 140 mM",100.2%
same,Solubility of Insulin Aspart,"[…] phenol + […] m-cresol, pH 7.2, NaCl 50 mM",99.1%
same,Solubility of Insulin Aspart,"[…] phenol + […] m-cresol, pH 7.2, NaCl 80 mM",99.2%
same,Solubility of Insulin Aspart,"[…] phenol + […] m-cresol, pH 7.2, NaCl 110 mM",99.2%
same,Solubility of Insulin Aspart,"[…] phenol + […] m-cresol, pH 7.2, NaCl 140 mM",101.1%
same,Solubility of Insulin Aspart,"[…] phenol + […] m-cresol, pH 7.4, NaCl 50 mM",100.0%
same,Solubility of Insulin Aspart,"[…] phenol + […] m-cresol, pH 7.4, NaCl 80 mM",99.6%
same,Solubility of Insulin Aspart,"[…] phenol + […] m-cresol, pH 7.4, NaCl 110 mM",99.5%
same,Solubility of Insulin Aspart,"[…] phenol + […] m-cresol, pH 7.4, NaCl 140 mM",101.1%
same,Solubility of Insulin Aspart,"[…] phenol + […] m-cresol, pH 7.6, NaCl 50 mM",100.1%
same,Solubility of Insulin Aspart,"[…] phenol + […] m-cresol, pH 7.6, NaCl 80 mM",99.7%
same,Solubility of Insulin Aspart,"[…] phenol + […] m-cresol, pH 7.6, NaCl 110 mM",99.4%
same,Solubility of Insulin Aspart,"[…] phenol + […] m-cresol, pH 7.6, NaCl 140 mM",101.1%
